Results: the supplement of paper PMC9942255
Values joined by “and” are separate entries in the source; they are usually repeats but may differ in a detail not shown here. Equal values may be shown once.

Tested on: Bacillus subtilis DB104 (SP-AmyQ fusion secretion)
Assay: AmyQ secretion efficiency, weighted average sort bin (1 = best secretion, 10 = worst) (bin number (weighted average, 1-10)); higher = lower secretion efficiency
Method in brief: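 The secretion score gives the average bin number weighted by read frequency and normalised to beads per bin, with low-abundance sequences excluded. Bins were 10 equally populated green/red fluorescence ratio fractions of occupied ~65 nL alginate beads, sorted by large-particle flow cytometry. The beads held fluorescein-starch and about 0.3 cells each of an amyE-integrated B. subtilis DB104 library fusing designed signal peptides to mature AmyQ, and they were grown about 13 h at room temperature and stained with nile red before sorting and Illumina sequencing.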

Sequence | AmyQ secretion efficiency
MKKAFLVFLSVVLVTTVFLSKQQESVAQAKQL | 1.98
MKKAFLVFLSVVLVTTVFLTSSFLVKQQESVAQAKQL | 4.08
MKKAFLVFLSVVLVTTVFLVKQQEAQAKQL | 2.1
MKKAFLVFLSVVLVTTVFLVKQQESVAQAADD | 4.45
MKKAFLVFLSVVLVTTVFLVKQQESVAQGKQL | 3.58
MKKAFLVFLSVVLVTTVFLVKQQESVAQHKQL | 4.12
MKKAFLVFLSVVLVTTVFLVKQQESVAQKKQL | 4.43
MKKAFLVFLSVVLVTTVFLVKQQESVAQNKQL | 2.89
MKKAFLVFLSVVLVTTVFLVKQQESVAQPKQL | 4.94
MKKAFLVFLSVVLVTTVFLVKQQESVAQRKQL | 2.03
MKKAFLVFLSVVLVTTVFLVKQQESVAQTKQL | 2.14
MKKAFLVFLSVVLVTTVFLVKQQESVAQVKQL | 3.34
MKKAFLVFLSVVLVTTVFLVKQQESVCQAKQL | 4.58
MKKAFLVFLSVVLVTTVFLVKQQESVDQAKQL | 5.67
MKKAFLVFLSVVLVTTVFLVKQQESVHQAKQL | 6.34
MKKAFLVFLSVVLVTTVFLVKQQESVLQAKQL | 4.04
MKKAFLVFLSVVLVTTVFLVKQQESVPQAKQL | 7.73
MKKAFLVFLSVVLVTTVFLVKQQESVSGAQAKQL | 4.03
MKKAFLVFLSVVLVTTVFLVVSFESVAQAKQL | 2.33
MKKAFLVFLSVVVKQQESVAQAKQL | 7.51
MKKAKKKKLSLGLVFGFSYGAGHVAEAKTK | 7.52
MKKAKRKRLSVVLVTTVFLVKQQESVAQAKQL | 5.44
MKKAKRKRRKAAVGLFTFGGVQQASAKEL | 8.05
MKKAKRVFLSVVLVTTVFLVKQQESVAQAKQL | 3.28
MKKAKRVSALTPSTTLAITAKAKEL | 7.61
MKKALTLCPAIVGSLLFFTAPASAHVS | 2.41

Sequence | AmyQ secretion efficiency
MKKARRLSAAAAVGLFTFGGVQQASAKEL | 3.35
MKKARRRKAAAAVGLFTFGGVQQASAKEL | 6.73
MKKARRVLLSLGLVFGFSYGAGHVAEAKTK | 2.43
MKKAWFLPLVCVLLISGWLAPAASASAQTT | 2.33
MKKCKRKKKKIALILSLSTNAFAKNT | 6.9
MKKCKRRKTTIALILSLSTNAFAKNT | 7.38
MKKCLAVTLVFGSMSFPTLTNSGGFKE | 4.92
MKKCLLFLTTIALILISLSTNAFAKNT | 2.13
MKKCLLFLTTIALILKRRTNAFAKNT | 7.37
MKKCLLFLTTIALILRKRRKKAFAKNT | 7.29
MKKCLLFLTTIALILSGSTNAFAKNT | 1.7
MKKCLLFLTTIALILSLSTNAFAANE | 1.03
MKKCLLFLTTIALILSLSTNAFAANR | 1.56
MKKCLLFLTTIALILSLSTNAFAEDE | 4.16
MKKCLLFLTTIALILSLSTNAFYKNT | 8.02
MKKCLLFLTTIALILSLSTNCFAKNT | 1.59
MKKCLLFLTTIALILSLSTNGFAKNT | 6.12
MKKCLLFLTTIALILSLSTTAFAKNT | 1.16
MKKCRKSIKRFLVSLIIGTFVISVPFMANAQSD | 1.76
MKKEGKQYSRLCLSLSPLVSTNEVFAATT | 7.68
MKKELLASLVLCLSLDDDDETNEVFAATT | 5.98
MKKELLASLVLCLSLKRLVSTNKVFAATT | 7.51
MKKELLASLVLCLSLKRRKRTNRVFAATT | 7.57
MKKELLASLVLCLSLSPLVSTNEVFAAEE | 2.07
MKKELLASLVLCLSLSPLVSTNEVFAATT | 2.73
MKKELRRKKKRCLSLSPLVSTNEVFAATT | 6.21

Sequence | AmyQ secretion efficiency
MKKERGGTYVLCLSLSPLVSTNEVFAATT | 8.09
MKKFFGPIILAFILFAGAIAIPS | 6.93
MKKFIFNMFIGLLFMLCLAALFTIGFPAQQADAAEA | 2.9
MKKFIVFICFFVLFSVHPIAAAAADS | 4.38
MKKFLLVSFVLFFALSTGITGVQAAPA | 2.2
MKKFLVALTMCGGLFVTPAKAVKT | 3.65
MKKFLVSLIIGTFVISVPFMANAQSD | 1.69
MKKFMNFSSVMLATALFLGLTPAGANAADL | 4.23
MKKFVAVAALSTTAFGAHASAKEI | 6.74
MKKGIIRFLLVSFVLFFALDEDITGVQAAPA | 3.78
MKKGIIRFLLVSFVLFFALFAFIAFGGGTTVQAAPA | 1.86
MKKGIIRFLLVSFVLFFALKKRITGVQAAPA | 6.43
MKKGIIRFLLVSFVLFFALLAFVVISFFSTGITGVQAAPA | 2.07
MKKGIIRFLLVSFVLFFALRRKKKRVQAAPA | 5.81
MKKGIIRFLLVSFVLFFALSSTGITGVQAAPA | 1.83
MKKGIIRFLLVSFVLFFALSTGITGAQAAPA | 2.21
MKKGIIRFLLVSFVLFFALSTGITGFQAAPA | 5.1
MKKGIIRFLLVSFVLFFALSTGITGKQAAPA | 5.05
MKKGIIRFLLVSFVLFFALSTGITGSQAAPA | 4.62
MKKGIIRFLLVSFVLFFALSTGITGVQAAPD | 2.73
MKKGIIRFLLVSFVLFFALSTGITGVQAAPK | 1.02
MKKGIIRFLLVSFVLFFALSTGITGVQAARK | 2.85
MKKGIIRFLLVSFVLFFALSTGITGVQCAPA | 6.36
MKKGIIRFLLVSFVLFFALSTGITGVQDAPA | 6.75
MKKGIIRFLLVSFVLFFALSTGITGVQFAPA | 7.18
MKKGIIRFLLVSFVLFFALSTGITGVQGAPA | 4.19

Sequence | AmyQ secretion efficiency
MKKGIIRFLLVSFVLFFALSTGITGVQHAPA | 5.62
MKKGIIRFLLVSFVLFFALSTGITGVQLAPA | 5.59
MKKGIIRFLLVSFVLFFALSTGITGVQRAPA | 4.88
MKKGIIRFLLVSFVLFFALSTGITGVQSAPA | 4.46
MKKGIIRFLLVSFVLFFALSTGITGVQVAPA | 6.17
MKKGIIRFLLVSFVLFFALSTGITGVQYAPA | 4.56
MKKGIIRFLLVSFVLFFALSTGSTGVQAAPA | 1.88
MKKGIIRFLLVSFVLFSTGITGVQAAPA | 2.37
MKKGIIRFRRKKFVLFFALSTGITGVQAAPA | 4.49
MKKGIIRFRRVSFVLFFALSTGITGVQAAPA | 2.36
MKKGIIRKTLVSFVLFFALSTGITGVQAAPA | 2
MKKGIIRQSQSQTGLFFALSTGITGVQAAPA | 7.14
MKKGIIRTFFLLVSFVLFFALSTGITGVQAAPA | 2.73
MKKGIIRTGRQSFVLFFALSTGITGVQAAPA | 5.13
MKKGIRFLLVSFVLFFALSTGITGVQAAPA | 2.35
MKKGKRTRTIGLLTVSIASPSFAAEK | 6.26
MKKGQYRRGSLGLVFGFSYGAGHVAEAKTK | 7.9
MKKGYSTTSTGVLVTTVFLVKQQESVAQAKQL | 7.95
MKKIAGVLTVAAAAMTAKMYATAKGN | 7.41
MKKIGLLFMLCLAALFTIGFPAQQADAAED | 2.02
MKKIGLLFMLCLAALFTIGFPAQQADAAPR | 1.25
MKKIGLLFMLCLAALFTIGFPAQQADAEED | 2.27
MKKIGLLFMLCLAALFTIGFPAQQLDAAEA | 2.04
MKKIGLLFMLCLAALKKRRFPAQQADAAEA | 7.17
MKKIGLLFMLCLAALRRRKRKRQQADAAEA | 6.59
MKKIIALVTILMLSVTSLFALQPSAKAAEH | 2.46

Sequence | AmyQ secretion efficiency
MKKIITATTAVVLGSTLFAGAASAQSI | 2.35
MKKIKKRKFMFGLVMGFSQFQPSTVFAADK | 7.57
MKKIMIFLTSFMLLAMTGQTALAKDV | 3.4
MKKIMSAFVGMVLLTIFCFSPQASAADD | 3.32
MKKIMSAFVGMVLLTIFCFSPQASAAYD | 4.89 and 4.8
MKKIMSAFVGMVLLTIFCFSPQASAEED | 2.74
MKKIMSAFVGMVLLTIFCFSPQASARRR | 6.47
MKKIMSAFVGMVLLTIFCKKRKRRASAAYD | 7.21
MKKIMSAFVGMVLLTIFCRRRQASAAYD | 7.16
MKKIMSAFVGMVLLTIFCVSTLTFSPQASAAYD | 4.76
MKKIMSARKRRRKLTIFCFSPQASAAYD | 6.63
MKKIMSARRRRVLLTIFCFSPQASAAYD | 7.27
MKKIMSGKKGMVLLTIFCFSPQASAAYD | 5.2
MKKIRRRKRKCLAALFTIGFPAQQADAAEA | 7.19
MKKISSVMLATALFLGLTPAGANAADL | 3.26
MKKIVIILFMFILVMSSGFSQFQPSTVFAADK | 3.08
MKKIVSILFMFGGFSQFQPSTVFAADK | 4.29
MKKIVSILFMFGLVMFFFTFTAIGVFAADK | 4.52
MKKIVSILFMFGLVMGFSQFQPSTGFAADK | 3.91
MKKIVSILFMFGLVMGFSQFQPSTMFAADK | 2.83
MKKIVSILFMFGLVMGFSQFQPSTVFAADK | 3.41 and 2.54
MKKIVSILFMFGLVMGFSQFQPSTVFAAED | 2.13
MKKIVSILFMFGLVMGFSQFQPSTVFAAKK | 2.86
